Experimental data: patent US20250326791A1 (published 2025)
Bridges are numbered along the chain shown (N, C = ends). Where no end group is shown, it is not given here. [ ]: non-standard residue; d: D form.

What was measured:
Assay in all cases: protein binding radioassay
[1] = biological target: κ opioid receptor (KOR)
[2] = biological target: µ opioid receptor (MOR)
[3] = biological target: δ opioid receptor (DOR)

| Binder | Kd [1] | Kd [2] | Kd [3] |
| --- | --- | --- | --- |
| YASPKCFRY[dA]GF[dL]LACT (disulfide 6-16) [DADLE-OL] | > 10000 nM | 3540 nM | 64 nM |
| Y[dA]GF[dL]KCFRYPNGVLACT (disulfide 7-17, 18 residues) [DADLE-OL II] | 1080 nM | 123 nM | 275 nM |
